# From EP4700040A1, “PEPTIDE AND LUMINESCENT COMPLEX CONTAINING SAME” (Shenzhen Loggene Life Science & Technology Co., Ltd., priority 2023, dated 2024)
# Target: Large subunit-rSCFV5 fusion protein
# Experiment: cell-based or functional assay
# Chain of Large subunit-rSCFV5 fusion protein (chain, as listed by the source): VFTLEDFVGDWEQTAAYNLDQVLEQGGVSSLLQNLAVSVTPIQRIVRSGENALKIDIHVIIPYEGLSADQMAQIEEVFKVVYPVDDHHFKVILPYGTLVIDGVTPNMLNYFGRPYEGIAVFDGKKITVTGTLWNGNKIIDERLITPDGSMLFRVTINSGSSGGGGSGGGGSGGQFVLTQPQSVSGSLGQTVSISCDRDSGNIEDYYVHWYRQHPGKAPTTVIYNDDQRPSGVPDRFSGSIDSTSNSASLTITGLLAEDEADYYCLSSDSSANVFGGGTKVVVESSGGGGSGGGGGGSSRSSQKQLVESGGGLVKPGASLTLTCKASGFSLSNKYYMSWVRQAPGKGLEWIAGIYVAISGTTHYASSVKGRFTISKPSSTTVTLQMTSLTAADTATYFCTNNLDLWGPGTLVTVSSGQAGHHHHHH
Binder,Signal-to-noise ratio at 1000 pg/ml,normalised luminescence at PCT 0 pg/ml,normalised luminescence at PCT 1.1 pg/ml,normalised luminescence at PCT 3.3 pg/ml,normalised luminescence at PCT 10 pg/ml,normalised luminescence at PCT 100 pg/ml,normalised luminescence at PCT 1000 pg/ml,normalised luminescence at PCT 10000 pg/ml,normalised luminescence at PCT 100000 pg/ml
"VEGYRLFNKEW (peptide, part only; not given: rSCFV18 scFv part, part only) [rSCFV18-small subunit mutant fusion protein RB284]",4.9,5000,5090,5290,5530,7040,24700,188000,862000
"VEGYRLFDKKW (peptide, part only; not given: rSCFV18 scFv part, part only) [rSCFV18-small subunit mutant fusion protein RB239]",11.5,5000,5530,5620,5990,11000,57600,466000,2.17e+06
"VSGWRIHEKIS (peptide, part only; not given: rSCFV18 scFv part, part only) [rSCFV18-small subunit mutant fusion protein RA120]",18,5000,4900,5260,5860,13400,90100,695000,2e+06
"VDGWRLHEKIS (peptide, part only; not given: rSCFV18 scFv part, part only) [rSCFV18-small subunit mutant fusion protein RA141]",8.6,5000,4930,5410,6020,8680,42800,333000,1.4e+06

# Target: Large subunit-rSCFV5 fusion protein
# Experiment: cell-based or functional assay
# Remark: another data set of the same source
Binder,"RLU, PCT+","RLU, PCT-",Signal-to-noise ratio,"complementary activity, luminescence at 3 min","complementary activity, luminescence at 6 min",Signal-to-noise ratio at 1000 pg/ml,luminescence at PCT 0 pg/ml,luminescence at PCT 1.37 pg/ml,luminescence at PCT 4.12 pg/ml,luminescence at PCT 12.35 pg/ml
"VEGYRLFNKEW (peptide, part only; not given: rSCFV18 scFv part, part only) [rSCFV18-small subunit mutant fusion protein RB284]",3990 RLU,302 RLU,12.2,–,–,–,–,–,–,–
"VEGYRLFNRVS (peptide, part only; not given: rSCFV18 scFv part, part only) [rSCFV18-small subunit mutant fusion protein RB027]",102000 RLU,4320 RLU,22.6,–,–,–,–,–,–,–
"VEGYRLFEKKL (peptide, part only; not given: rSCFV18 scFv part, part only) [rSCFV18-small subunit mutant fusion protein RB149]",79100 RLU,3590 RLU,21,–,–,–,–,–,–,–
"VEGYRLFEKVW (peptide, part only; not given: rSCFV18 scFv part, part only) [rSCFV18-small subunit mutant fusion protein RB172]",41400 RLU,1090 RLU,36.9,–,–,–,–,–,–,–
"VEGYRLFDKKW (peptide, part only; not given: rSCFV18 scFv part, part only) [rSCFV18-small subunit mutant fusion protein RB239]",31900 RLU,465 RLU,67.7,–,–,31.1,288,301,332,407
"VEGYRLFNRVG (peptide, part only; not given: rSCFV18 scFv part, part only) [rSCFV18-small subunit mutant fusion protein RB122]",55400 RLU,2600 RLU,20.2,–,–,–,–,–,–,–
"AEPYRIFDRKS (peptide, part only; not given: scFv part; template fusion not stated, part only) [small subunit mutant fusion protein RD-099]",–,–,–,221 RLU,52 RLU,–,–,–,–,–
"VSGYRIFEKKW (peptide, part only; not given: rSCFV18 scFv part, part only) [rSCFV18-small subunit mutant fusion protein RC-113]",6210 RLU,1180 RLU,5.3,–,–,–,–,–,–,–
"VEGYRIFEKKW (peptide, part only; not given: rSCFV18 scFv part, part only) [rSCFV18-small subunit mutant fusion protein RC-286]",5000 RLU,438 RLU,11.4,–,–,5.5,–,–,–,–
"IEGYRLFDRKS (peptide, part only; not given: scFv part; template fusion not stated, part only) [small subunit mutant fusion protein RD-092]",–,–,–,4900 RLU,4540 RLU,–,–,–,–,–
"VSGWRIFDKKS (peptide, part only; not given: rSCFV18 scFv part, part only) [rSCFV18-small subunit mutant fusion protein RC-124]",9280 RLU,1230 RLU,7.5,–,–,–,–,–,–,–
"VEGYRLHEKIS (peptide, part only; not given: rSCFV18 scFv part, part only) [rSCFV18-small subunit mutant fusion protein RA128]",17900 RLU,387 RLU,45.2,–,–,–,–,–,–,–
"VSGWRIHEKIS (peptide, part only; not given: rSCFV18 scFv part, part only) [rSCFV18-small subunit mutant fusion protein RA120]",81100 RLU,2140 RLU,36.9,–,–,–,–,–,–,–
"VSGYRLFDKKW (peptide, part only; not given: rSCFV18 scFv part, part only) [rSCFV18-small subunit mutant fusion protein RC-261]",7220 RLU,1620 RLU,4.5,–,–,–,–,–,–,–
"VEGWRLFDRVS (peptide, part only; not given: rSCFV18 scFv part, part only) [rSCFV18-small subunit mutant fusion protein RC-237]",10800 RLU,2190 RLU,5,–,–,–,–,–,–,–
"VEGWRLFDRKS (peptide, part only; not given: rSCFV18 scFv part, part only) [rSCFV18-small subunit mutant fusion protein RC-232]",18300 RLU,3180 RLU,5.8,–,–,–,–,–,–,–
"VEGYRLFNRKW (peptide, part only; not given: rSCFV18 scFv part, part only) [rSCFV18-small subunit mutant fusion protein RB223]",39200 RLU,1100 RLU,34.7,–,–,–,–,–,–,–
"VSGYRLFDRKS (peptide, part only; not given: rSCFV18 scFv part, part only) [rSCFV18-small subunit mutant fusion protein RC-228]",16300 RLU,3000 RLU,5.4,–,–,–,–,–,–,–
"VEGYRLFEKVS (peptide, part only; not given: rSCFV18 scFv part, part only) [rSCFV18-small subunit mutant fusion protein RC-042]",5770 RLU,593 RLU,9.7,–,–,–,–,–,–,–
"VEGYRLFERVL (peptide, part only; not given: rSCFV18 scFv part, part only) [rSCFV18-small subunit mutant fusion protein RB150]",53900 RLU,1630 RLU,32.1,–,–,–,–,–,–,–

# Now from value to binder:
"RLU, PCT+","RLU, PCT-",Signal-to-noise ratio,"complementary activity, luminescence at 3 min","complementary activity, luminescence at 6 min",Signal-to-noise ratio at 1000 pg/ml,luminescence at PCT 0 pg/ml,luminescence at PCT 1.37 pg/ml,luminescence at PCT 4.12 pg/ml,luminescence at PCT 12.35 pg/ml,Binder
9040 RLU,1520 RLU,5.9,–,–,–,–,–,–,–,"VNGWRIFDKKS (peptide, part only; not given: rSCFV18 scFv part, part only) [rSCFV18-small subunit mutant fusion protein RC-242]"
–,–,–,3390 RLU,3220 RLU,–,–,–,–,–,"AEGYRLFDRKS (peptide, part only; not given: scFv part; template fusion not stated, part only) [small subunit mutant fusion protein RD-086]"
12000 RLU,2070 RLU,5.8,–,–,–,–,–,–,–,"VSGYRIFEKKS (peptide, part only; not given: rSCFV18 scFv part, part only) [rSCFV18-small subunit mutant fusion protein RC-129]"
11800 RLU,2500 RLU,4.7,–,–,–,–,–,–,–,"VSGWRIFDRKS (peptide, part only; not given: rSCFV18 scFv part, part only) [rSCFV18-small subunit mutant fusion protein RC-041]"
26200 RLU,658 RLU,38.8,–,–,–,–,–,–,–,"VEGYRLFDRVW (peptide, part only; not given: rSCFV18 scFv part, part only) [rSCFV18-small subunit mutant fusion protein RB128]"
4770 RLU,685 RLU,7,–,–,5.8,–,–,–,–,"VDGYRLFEKVS (peptide, part only; not given: rSCFV18 scFv part, part only) [rSCFV18-small subunit mutant fusion protein RC-263]"
8200 RLU,808 RLU,10.1,–,–,–,–,–,–,–,"VEGYRLFERKS (peptide, part only; not given: rSCFV18 scFv part, part only) [rSCFV18-small subunit mutant fusion protein RC-145]"
7240 RLU,921 RLU,7.9,–,–,6.3,–,–,–,–,"VEGYRLFDRKS (peptide, part only; not given: rSCFV18 scFv part, part only) [rSCFV18-small subunit mutant fusion protein RC-218]"
10400 RLU,1300 RLU,8,–,–,–,–,–,–,–,"VSGYRIFDKKS (peptide, part only; not given: rSCFV18 scFv part, part only) [rSCFV18-small subunit mutant fusion protein RC-044]"
30600 RLU,463 RLU,65.1,–,–,–,–,–,–,–,"VDGWRLHEKIS (peptide, part only; not given: rSCFV18 scFv part, part only) [rSCFV18-small subunit mutant fusion protein RA141]"
27200 RLU,590 RLU,45.1,–,–,–,–,–,–,–,"VEGYRLFDRKW (peptide, part only; not given: rSCFV18 scFv part, part only) [rSCFV18-small subunit mutant fusion protein RB186]"
37200 RLU,906 RLU,40,–,–,–,–,–,–,–,"VEGYRLFKREL (peptide, part only; not given: rSCFV18 scFv part, part only) [rSCFV18-small subunit mutant fusion protein RB152]"
8510 RLU,820 RLU,10.4,–,–,–,–,–,–,–,"VSGYRLFDRKW (peptide, part only; not given: rSCFV18 scFv part, part only) [rSCFV18-small subunit mutant fusion protein RC-033]"

# Same assay, conditions: not given
Binder,luminescence at PCT 37.04 pg/ml,luminescence at PCT 111.1 pg/ml,luminescence at PCT 333.3 pg/ml,luminescence at PCT 1000 pg/ml,normalised luminescence at PCT 0.0 pg/ml,normalised luminescence at PCT 1 pg/ml,normalised luminescence at PCT 3 pg/ml,normalised luminescence at PCT 10 pg/ml,normalised luminescence at PCT 30 pg/ml,normalised luminescence at PCT 100 pg/ml
"VEGYRLFDKKW (peptide, part only; not given: rSCFV18 scFv part, part only) [rSCFV18-small subunit mutant fusion protein RB239]",590,1320,3360,8950,–,–,–,–,–,–
"VEGYRIFEKKW (peptide, part only; not given: rSCFV18 scFv part, part only) [rSCFV18-small subunit mutant fusion protein RC-286]",–,–,–,–,5000,4670,4640,4830,5410,6700

# More lines, now with the values ahead:
luminescence at PCT 37.04 pg/ml,luminescence at PCT 111.1 pg/ml,luminescence at PCT 333.3 pg/ml,luminescence at PCT 1000 pg/ml,normalised luminescence at PCT 0.0 pg/ml,normalised luminescence at PCT 1 pg/ml,normalised luminescence at PCT 3 pg/ml,normalised luminescence at PCT 10 pg/ml,normalised luminescence at PCT 30 pg/ml,normalised luminescence at PCT 100 pg/ml,Binder
–,–,–,–,5000,5130,5230,5190,5650,7130,"VDGYRLFEKVS (peptide, part only; not given: rSCFV18 scFv part, part only) [rSCFV18-small subunit mutant fusion protein RC-263]"
–,–,–,–,5000,4940,4980,5160,5700,7490,"VEGYRLFDRKS (peptide, part only; not given: rSCFV18 scFv part, part only) [rSCFV18-small subunit mutant fusion protein RC-218]"

# Same assay, conditions: not given
Binder,normalised luminescence at PCT 1000 pg/ml,normalised luminescence at PCT 10000 pg/ml,normalised luminescence at PCT 100000 pg/ml,normalised luminescence at PCT 250000 pg/ml
"VEGYRIFEKKW (peptide, part only; not given: rSCFV18 scFv part, part only) [rSCFV18-small subunit mutant fusion protein RC-286]",27600,236000,1.44e+06,2.01e+06
"VDGYRLFEKVS (peptide, part only; not given: rSCFV18 scFv part, part only) [rSCFV18-small subunit mutant fusion protein RC-263]",28800,241000,1.56e+06,2.23e+06
"VEGYRLFDRKS (peptide, part only; not given: rSCFV18 scFv part, part only) [rSCFV18-small subunit mutant fusion protein RC-218]",31600,266000,1.76e+06,2.44e+06
